{
  "source": "paper PMC8756792",
  "target": "Ribulose-5-phosphate epimerase of Leishmania donovani (Leishmania donovani)",
  "assay": "SEC",
  "data": [
    {"substance": "Ribulose-5-phosphate epimerase of Leishmania donovani (enzyme)", "values": [
      {"measurement": "stoichiometry N", "value": 2}
    ]}
  ]
}
